# According to IntAct's records for PubMed 27189942:
# B1: MICAL-like protein 1 (Homo sapiens), Q8N3F8 (parent)
# chain: MAGPRGALLAWCRRQCEGYRGVEIRDLSSSFRDGLAFCAILHRHRPDLLDFDSLSKDNVFENNRLAFEVAEKELGIPALLDPNDMVSMSVPDCLSIMTYVSQYYNHFCSPGQAGVSPPRKGLAPCSPPSVAPTPVEPEDVAQGEELSSGSLSEQGTGQTPSSTCAACQQHVHLVQRYLADGRLYHRHCFRCRRCSSTLLPGAYENGPEEGTFVCAEHCARLGPGTRSGTRPGPFSQPKQQHQQQLAEDAKDVPGGGPSSSAPAGAEADGPKASPEARPQIPTKPRVPGKLQELASPPAGRPTPAPRKASESTTPAPPTPRPRSSLQQENLVEQAGSSSLVNGRLHELPVPKPRGTPKPSEGTPAPRKDPPWITLVQAEPKKKPAPLPPSSSPGPPSQDSRQVENGGTEEVAQPSPTASLESKPYNPFEEEEEDKEEEAPAAPSLATSPALGHPESTPKSLHPWYGITPTSSPKTKKRPAPRAPSASPLALHASRLSHSEPPSATPSPALSVESLSSESASQTAGAELLEPPAVPKSSSEPAVHAPGTPGNPVSLSTNSSLASSGELVEPRVEQMPQASPGLAPRTRGSSGPQPAKPCSGATPTPLLLVGDRSPVPSPGSSSPQLQVKSSCKENPFNRKPSPAASPATKKATKGSKPVRPPAPGHGFPLIKRKVQADQYIPEEDIHGEMDTIERRLDALEHRGVLLEEKLRGGLNEGREDDMLVDWFKLIHEKHLLVRRESELIYVFKQQNLEQRQADVEYELRCLLNKPEKDWTEEDRAREKVLMQELVTLIEQRNAIINCLDEDRQREEEEDKMLEAMIKKKEFQREAEPEGKKKGKFKTMKMLKLLGNKRDAKSKSPRDKS
# partner: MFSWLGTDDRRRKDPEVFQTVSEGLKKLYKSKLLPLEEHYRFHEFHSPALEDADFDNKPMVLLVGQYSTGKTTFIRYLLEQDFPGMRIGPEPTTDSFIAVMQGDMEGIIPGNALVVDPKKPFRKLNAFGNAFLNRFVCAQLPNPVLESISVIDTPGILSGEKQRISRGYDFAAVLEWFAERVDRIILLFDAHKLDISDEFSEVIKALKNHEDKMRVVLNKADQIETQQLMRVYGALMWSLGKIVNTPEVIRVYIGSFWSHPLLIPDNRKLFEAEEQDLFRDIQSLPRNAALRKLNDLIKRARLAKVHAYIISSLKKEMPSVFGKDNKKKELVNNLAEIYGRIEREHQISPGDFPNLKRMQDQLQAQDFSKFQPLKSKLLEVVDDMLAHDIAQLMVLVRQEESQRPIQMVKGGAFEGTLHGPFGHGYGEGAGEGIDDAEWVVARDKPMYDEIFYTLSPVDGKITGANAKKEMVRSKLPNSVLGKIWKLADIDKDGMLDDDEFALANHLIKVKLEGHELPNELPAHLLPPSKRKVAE
# B2: Rabankyrin-5 (Homo sapiens), Q9P2R3 (parent)
# chain: MAEEEVAKLEKHLMLLRQEYVKLQKKLAETEKRCALLAAQANKESSSESFISRLLAIVADLYEQEQYSDLKIKVGDRHISAHKFVLAARSDSWSLANLSSTKELDLSDANPEVTMTMLRWIYTDELEFREDDVFLTELMKLANRFQLQLLRERCEKGVMSLVNVRNCIRFYQTAEELNASTLMNYCAEIIASHWDDLRKEDFSSMSAQLLYKMIKSKTEYPLHKAIKVEREDVVFLYLIEMDSQLPGKLNEADHNGDLALDLALSRRLESIATTLVSHKADVDMVDKSGWSLLHKGIQRGDLFAATFLIKNGAFVNAATLGAQETPLHLVALYSSKKHSADVMSEMAQIAEALLQAGANPNMQDSKGRTPLHVSIMAGNEYVFSQLLQCKQLDLELKDHEGSTALWLAVQHITVSSDQSVNPFEDVPVVNGTSFDENSFAARLIQRGSHTDAPDTATGNCLLQRAAGAGNEAAALFLATNGAHVNHRNKWGETPLHTACRHGLANLTAELLQQGANPNLQTEEALPLPKEAASLTSLADSVHLQTPLHMAIAYNHPDVVSVILEQKANALHATNNLQIIPDFSLKDSRDQTVLGLALWTGMHTIAAQLLGSGAAINDTMSDGQTLLHMAIQRQDSKSALFLLEHQADINVRTQDGETALQLAIRNQLPLVVDAICTRGADMSVPDEKGNPPLWLALANNLEDIASTLVRHGCDATCWGPGPGGCLQTLLHRAIDENNEPTACFLIRSGCDVNSPRQPGANGEGEEEARDGQTPLHLAASWGLEETVQCLLEFGANVNAQDAEGRTPIHVAISSQHGVIIQLLVSHPDIHLNVRDRQGLTPFACAMTFKNNKSAEAILKRESGAAEQVDNKGRNFLHVAVQNSDIESVLFLISVHANVNSRVQDASKLTPLHLAVQAGSEIIVRNLLLAGAKVNELTKHRQTALHLAAQQDLPTICSVLLENGVDFAAVDENGNNALHLAVMHGRLNNIRVLLTECTVDAEAFNLRGQSPLHILGQYGKENAAAIFDLFLECMPGYPLDKPDADGSTVLLLAYMKGNANLCRAIVRSGARLGVNNNQGVNIFNYQVATKQLLFRLLDMLSKEPPWCDGSYCYECTARFGVTTRKHHCRHCGRLLCHKCSTKEIPIIKFDLNKPVRVCNICFDVLTLGGVS
# partner: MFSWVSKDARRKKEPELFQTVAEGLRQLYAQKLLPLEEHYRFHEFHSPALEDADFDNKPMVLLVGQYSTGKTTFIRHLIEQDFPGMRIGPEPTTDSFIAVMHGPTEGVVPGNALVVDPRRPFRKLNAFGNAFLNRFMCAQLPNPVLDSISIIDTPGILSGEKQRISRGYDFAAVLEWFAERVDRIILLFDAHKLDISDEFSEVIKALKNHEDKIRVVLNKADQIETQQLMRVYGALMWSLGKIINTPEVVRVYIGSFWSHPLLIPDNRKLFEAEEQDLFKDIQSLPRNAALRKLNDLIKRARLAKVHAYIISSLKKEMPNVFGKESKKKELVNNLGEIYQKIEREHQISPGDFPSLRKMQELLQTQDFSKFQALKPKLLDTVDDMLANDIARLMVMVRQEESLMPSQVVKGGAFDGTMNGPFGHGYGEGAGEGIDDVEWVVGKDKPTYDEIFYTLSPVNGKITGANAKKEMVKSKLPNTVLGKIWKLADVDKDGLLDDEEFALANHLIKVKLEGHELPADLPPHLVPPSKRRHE
# B3: Rabankyrin-5 (Homo sapiens), Q9P2R3 (parent)
# chain: B2 chain
# partner: B1 partner
# B4: MICAL-like protein 1 (Homo sapiens), Q8N3F8 (parent)
# chain: B1 chain
# partner: B2 partner
# B5: EH domain-containing protein 3 (Homo sapiens), Q9NZN3 (parent)
# chain: B1 partner
# partner: B2 chain
# Variants of: B1
# Conditions: with ehd3_human EHD3, Q9NZN3
row,Variant,effect of a mutation on the interaction
1,E428A;E429A;E430A;E431A;E432A;D433A,disrupting interaction

# Variants of: B2
# Conditions: with ehd1_human EHD1, Q9H4M9
row,Variant,effect of a mutation on the interaction
1,S419P,disrupting interaction

# Variants of: B3
# Conditions: with ehd3_human EHD3, Q9NZN3
row,Variant,effect of a mutation on the interaction
1,V420A,causing an interaction
2,V420Y,causing an interaction
3,Q418K;S419P;V420Y,causing an interaction
4,Q418K,causing an interaction

# Variants of: B4
# Conditions: with ehd1_human EHD1, Q9H4M9
row,Variant,effect of a mutation on the interaction
1,E428A;E429A;E430A;E431A;E432A;D433A,disrupting interaction
2,E429A;E430A;E431A;E432A;D433A,decreasing interaction

# Variants of: B5
# Conditions: with anfy1_human ANKFY1, Q9P2R3
row,Variant,effect of a mutation on the interaction
1,MFSWLGTDDRRRKDPEVFQTVSEGLKKLYKSKLLPLEEHYRFHEFHSPALEDADFDNKPMVLLVGQYSTGKTTFIRYLLEQDFPGMRIGPEPTTDSFIAVMQGDMEGIIPGNALVVDPKKPFRKLNAFGNAFLNRFVCAQLPNPVLESISVIDTPGILSGEKQRISRGYDFAAVLEWFAERVDRIILLFDAHKLDISDEFSEVIKALKNHEDKMRVVLNKADQIETQQLMRVYGALMWSLGKIVNTPEVIRVYIGSFWSHPLLIPDNRKLFEAEEQDLFRDIQSLPRNAALRKLNDLIKRARLAKVHAYIISSLKKEMPSVFGKDNKKKELVNNLAEIYGRIEREHQISPGDFPNLKRMQDQLQAQDFSKFQPLKSKLLEVVDDMLAHDIAQLMVLVRQEESQRPIQMVKGGAFEGTLHGPFGHGYGEGAGEGIDDAEWVVARDKPMYDEIFYTLSPVDGKITGANAKKEMVRSKLPNSVLGKIWKLADIDKDGMLDDDEFALANHLIKVKLEGHELPNDLPAHLLPPSKRKVAE [E520D],causing an interaction
2,MFSWLGTDDRRRKDPEVFQTVSEGLKKLYKSKLLPLEEHYRFHEFHSPALEDADFDNKPMVLLVGQYSTGKTTFIRYLLEQDFPGMRIGPEPTTDSFIAVMQGDMEGIIPGNALVVDPKKPFRKLNAFGNAFLNRFVCAQLPNPVLESISVIDTPGILSGEKQRISRGYDFAAVLEWFAERVDRIILLFDAHKLDISDEFSEVIKALKNHEDKMRVVLNKADQIETQQLMRVYGALMWSLGKIVNTPEVIRVYIGSFWSHPLLIPDNRKLFEAEEQDLFRDIQSLPRNAALRKLNDLIKRARLAKVHAYIISSLKKEMPSVFGKDNKKKELVNNLAEIYGRIEREHQISPGDFPNLKRMQDQLQAQDFSKFQPLKSKLLEVVDDMLAHDIAQLMVLVRQEESQRPIQMVKGGAFEGTLHGPFGHGYGEGAGEGIDDAEWVVARDKPMYDEIFYTLSPVDGKITGANAKKEMVRSKLPNSVLGKIWKLADIDKDGMLDDDEFALANHLIKVKLEGHELPAELPAHLLPPSKRKVAE [N519A],causing an interaction

# Variants of: B5
# Conditions: with anfy1_human ANKFY1, Q9P2R3
# Remark: another data set of the same source
row,Variant,effect of a mutation on the interaction
1,MFSWLGTDDRRRKDPEVFQTVSEGLKKLYKSKLLPLEEHYRFHEFHSPALEDADFDNKPMVLLVGQYSTGKTTFIRYLLEQDFPGMRIGPEPTTDSFIAVMQGDMEGIIPGNALVVDPKKPFRKLNAFGNAFLNRFVCAQLPNPVLESISVIDTPGILSGEKQRISRGYDFAAVLEWFAERVDRIILLFDAHKLDISDEFSEVIKALKNHEDKMRVVLNKADQIETQQLMRVYGALMWSLGKIVNTPEVIRVYIGSFWSHPLLIPDNRKLFEAEEQDLFRDIQSLPRNAALRKLNDLIKRARLAKVHAYIISSLKKEMPSVFGKDNKKKELVNNLAEIYGRIEREHQISPGDFPNLKRMQDQLQAQDFSKFQPLKSKLLEVVDDMLAHDIAQLMVLVRQEESQRPIQMVKGGAFEGTLHGPFGHGYGEGAGEGIDDAEWVVARDKPMYDEIFYTLSPVDGKITGANAKKEMVRSKLPNSVLGKIWKLADIDKDGMLDDDEFALANHLIKVKLEGHELPADLPAHLLPPSKRKVAE [N519A;E520D],causing an interaction
